In patent US20200024330A1:

Columns and labels:
Assay in all cases: cell-based or functional assay
[1] = molecular target: HIV-1 92UG005 envelope protein (Env) on pseudovirus (HIV-1)
[2] = molecular target: HIV-1 93IN905 envelope glycoprotein (Env) on pseudovirus (HIV-1)
[3] = molecular target: HIV-1 94UG103 envelope protein (Env) on pseudovirus (HIV-1)
[4] = molecular target: HIV-1 98CN009 envelope glycoprotein (Env) on pseudovirus (HIV-1)
[5] = molecular target: HIV-1 Env of isolate MGRM-G-015 (clade G pseudovirus) (HIV-1)
[6] = molecular target: HIV-1 Env of isolate MGRM-G-025 (clade G pseudovirus) (HIV-1)
[7] = molecular target: HIV-1 Env of isolate MGRM-G-028 (clade G pseudovirus) (HIV-1)
[8] = molecular target: HIV-1 Env of pseudovirus 93TH305, clade B (HIV-1)
[9] = molecular target: HIV-1 Env of pseudovirus MGRM-Chronic-B-003, clade B (HIV-1)
[10] = molecular target: HIV-1 IAVI-C18 envelope protein (Env) on pseudovirus (HIV-1)
[11] = molecular target: HIV-1 MGRM-A-013 envelope glycoprotein (Env) (HIV-1)
[12] = molecular target: HIV-1 MGRM-C-007 Env (HIV-1)
[13] = molecular target: HIV-1 MGRM-C-009 Env (HIV-1)
[14] = molecular target: HIV-1 MGRM-F1-017 Env (pseudovirus) (HIV-1)
[15] = molecular target: HIV-1 Env of isolate 93IN905 (HIV-1)
[16] = molecular target: HIV-1 Env of isolate 93MW959 (HIV-1)
[17] = molecular target: HIV-1 Env of isolate 93UG077 (HIV-1)
[18] = molecular target: HIV-1 Env of isolate 93WR029 (HIV-1)
[19] = molecular target: HIV-1 Env of isolate APV-6 (pseudovirus) (HIV-1 isolate APV-6, subtype B)
[20] = molecular target: HIV-1 Env of isolate JRCSF (HIV-1) (UniProt P20871)
[21] = molecular target: HIV-1 Env of isolate MGRM-AE-001 (CRF01_AE), on pseudovirus (HIV-1)
[22] = molecular target: HIV-1 Env of isolate MGRM-AE-003 (CRF01_AE), on pseudovirus (HIV-1)
[23] = molecular target: HIV-1 Env of isolate MGRM-AG-008 (CRF_AG), on pseudovirus (HIV-1)
[24] = molecular target: HIV-1 Env of isolate MGRM-C-014 (HIV-1)
[25] = molecular target: HIV-1 Env of isolate MGRM-C-025 (HIV-1)
[26] = molecular target: HIV-1 Env of isolate MGRM-D-001 (HIV-1)
[27] = molecular target: HIV-1 Env of isolate MGRM-F1-006 (subtype F), on pseudovirus (HIV-1)
[28] = molecular target: HIV-1 Env of isolate MGRM-F1-021 (subtype F), on pseudovirus (HIV-1)
[29] = molecular target: HIV-1 JR-CSF Env D474A (HIV-1 (isolate JR-CSF)) (UniProt P20871)
[30] = molecular target: HIV-1 JR-CSF Env L179A (HIV-1 (isolate JR-CSF)) (UniProt P20871)
[31] = molecular target: HIV-1 JR-CSF Env P470A (HIV-1 (isolate JR-CSF)) (UniProt P20871)
[32] = molecular target: HIV-1 JR-CSF Env R480A (HIV-1 (isolate JR-CSF)) (UniProt P20871)
[33] = molecular target: aMLV envelope on pseudovirus (negative control virus)

Chain of 1443_C16 (PG16) (TCN-116) (antibody) (VH): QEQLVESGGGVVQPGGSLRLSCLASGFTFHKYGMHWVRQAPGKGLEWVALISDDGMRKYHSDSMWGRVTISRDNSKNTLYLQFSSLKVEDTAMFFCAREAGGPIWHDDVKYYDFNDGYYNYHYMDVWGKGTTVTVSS
Chain of 1443_C16 (PG16) (TCN-116) (antibody) (VL): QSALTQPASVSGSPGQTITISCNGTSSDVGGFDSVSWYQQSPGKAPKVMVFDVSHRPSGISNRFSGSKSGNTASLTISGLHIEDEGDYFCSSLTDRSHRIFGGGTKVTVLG

Substance | neutralization IC50 [1] | IC90 (pseudovirus neutralization) [2] | neutralization IC50 [3] | IC50 (µg/ml), pseudovirus neutralization [4] | IC50 (µg/ml), pseudovirus neutralization [5] | IC50 (µg/ml), pseudovirus neutralization [6] | IC50 (µg/ml), pseudovirus neutralization [7] | IC50 (µg/ml), pseudovirus neutralization [8] | IC50 (µg/ml), pseudovirus neutralization [9] | neutralization IC50 [10] | IC50 (µg/ml), pseudovirus neutralization [11] | IC50 [12] | IC50 [13] | IC50 (µg/ml), pseudovirus neutralization [14] | IC50 [15] | IC50 [16] | neutralization IC50 [17] | neutralization IC50 [18] | IC50 (µg/mL) neutralization [19] | IC50 [20] | further results
2G12 (antibody) | > 50 µg/mL | > 50 µg/mL | > 50 µg/mL | > 50 µg/mL | > 50 µg/mL | 31.9 µg/mL | 28.2 µg/mL | 0.55 µg/mL | 0.06 µg/mL | > 50 µg/mL | > 50 µg/mL | > 50 µg/mL | > 50 µg/mL | > 50 µg/mL | – | – | – | – | – | – | –
5136_H01 (PGT-131) (antibody) | – | – | – | – | – | – | – | – | – | – | – | – | – | – | 0.177 µg/mL | > 50 µg/mL | > 50 µg/mL | > 50 µg/mL | > 50 µg/mL | 0.029 µg/mL | IC50, single-round pseudovirus neutralization [21]: 4.8 µg/mL; IC50, single-round pseudovirus neutralization [22]: 1.41 µg/mL; IC50, single-round pseudovirus neutralization [23]: > 50 µg/mL; IC50 [24]: > 50 µg/mL; IC50 [25]: > 50 µg/mL; IC50 [26]: > 50 µg/mL; IC50, pseudovirus neutralization [27]: > 50 µg/mL; IC50, pseudovirus neutralization [28]: > 50 µg/mL; Fold IC50 increase relative to wild-type [29]: 1.6 fold; Fold IC50 increase relative to wild-type [30]: 4.8 fold; Fold IC50 increase relative to wild-type [31]: 1 fold; Fold IC50 increase relative to wild-type [32]: 1.5 fold
1443_C16 (PG16) (TCN-116) (antibody) | > 50 µg/mL | > 50 µg/mL | 0.008 µg/mL | 5.76 µg/mL | 5.33 µg/mL | > 50 µg/mL | 3.09 µg/mL | 19.3 µg/mL | 0.19 µg/mL | 0.0067 µg/mL | 0.09 µg/mL | 0.05 µg/mL | > 50 µg/mL | > 50 µg/mL | – | – | – | – | – | – | –
4E10 (antibody) | 8.86 µg/mL | 12.8 µg/mL | 9.7 µg/mL | 2.46 µg/mL | 1.07 µg/mL | 1.7 µg/mL | 6.32 µg/mL | 12.3 µg/mL | 3.5 µg/mL | > 50 µg/mL | 1.46 µg/mL | 5.84 µg/mL | 0.56 µg/mL | 4.92 µg/mL | – | – | – | – | – | – | –
1495_C14 (PGC14) (antibody) | > 50 µg/mL | – | > 50 µg/mL | 43 µg/mL | > 50 µg/mL | > 50 µg/mL | > 50 µg/mL | 6 µg/mL | > 50 µg/mL | > 50 µg/mL | > 50 µg/mL | > 50 µg/mL | > 50 µg/mL | > 50 µg/mL | – | – | – | – | – | – | –
5343_B08 (PGT-135) (antibody) | – | – | – | – | – | – | – | – | – | – | – | – | – | – | 0.011 µg/mL | > 50 µg/mL | > 50 µg/mL | > 50 µg/mL | > 50 µg/mL | 0.131 µg/mL | IC50, single-round pseudovirus neutralization [21]: > 50 µg/mL; IC50, single-round pseudovirus neutralization [22]: > 50 µg/mL; IC50, single-round pseudovirus neutralization [23]: > 50 µg/mL; IC50 [24]: > 50 µg/mL; IC50 [25]: > 50 µg/mL; IC50 [26]: > 50 µg/mL; IC50, pseudovirus neutralization [27]: > 50 µg/mL; IC50, pseudovirus neutralization [28]: 0.065 µg/mL; Fold IC50 increase relative to wild-type [29]: 1.2 fold; Fold IC50 increase relative to wild-type [30]: 1.2 fold; Fold IC50 increase relative to wild-type [31]: 0.8 fold; Fold IC50 increase relative to wild-type [32]: 1.4 fold
b12 (antibody) | > 50 µg/mL | > 50 µg/mL | 3.54 µg/mL | 1.52 µg/mL | > 50 µg/mL | > 50 µg/mL | > 50 µg/mL | 4.17 µg/mL | > 50 µg/mL | > 50 µg/mL | 7.04 µg/mL | > 50 µg/mL | > 50 µg/mL | > 50 µg/mL | – | – | – | – | – | – | –
5147_N06 (PGT-130) (antibody) | – | – | – | – | – | – | – | – | – | – | – | – | – | – | 0.02 µg/mL | 8.55 µg/mL | 21.4 µg/mL | 34.3 µg/mL | > 50 µg/mL | 0.01 µg/mL | IC50 (ug/ml), neutralizing activity [2]: 0.0182 µg/mL; IC50, single-round pseudovirus neutralization [21]: 1 µg/mL; IC50, single-round pseudovirus neutralization [22]: 0.337 µg/mL; IC50, single-round pseudovirus neutralization [23]: > 50 µg/mL; IC50 [24]: > 50 µg/mL; IC50 [25]: > 50 µg/mL; IC50 [26]: > 50 µg/mL; IC50, pseudovirus neutralization [27]: > 50 µg/mL; IC50, pseudovirus neutralization [28]: > 50 µg/mL; Fold IC50 increase relative to wild-type [29]: 2 fold; Fold IC50 increase relative to wild-type [30]: 2.4 fold; Fold IC50 increase relative to wild-type [31]: 2.4 fold; Fold IC50 increase relative to wild-type [32]: 1 fold; IC50 (ug/ml), neutralizing activity [33]: > 10 µg/mL
5114_A19 (PGT-128) (antibody) | – | – | – | – | – | – | – | – | – | – | – | – | – | – | 0.009 µg/mL | 0.045 µg/mL | 0.014 µg/mL | > 50 µg/mL | 0.007 µg/mL | 0.003 µg/mL | IC50, single-round pseudovirus neutralization [21]: 0.069 µg/mL; IC50, single-round pseudovirus neutralization [22]: 0.18 µg/mL; IC50, single-round pseudovirus neutralization [23]: 0.668 µg/mL; IC50 [24]: > 50 µg/mL; IC50 [25]: 10.5 µg/mL; IC50 [26]: 0.138 µg/mL; IC50, pseudovirus neutralization [27]: 0.763 µg/mL; IC50, pseudovirus neutralization [28]: > 50 µg/mL; Fold IC50 increase relative to wild-type [29]: 0.8 fold; Fold IC50 increase relative to wild-type [30]: 2.8 fold; Fold IC50 increase relative to wild-type [31]: 0.6 fold; Fold IC50 increase relative to wild-type [32]: 0.1 fold
2F5 (antibody) | 11.8 µg/mL | > 50 µg/mL | 3.79 µg/mL | > 50 µg/mL | 0.43 µg/mL | > 50 µg/mL | 2.24 µg/mL | 7.61 µg/mL | 1 µg/mL | > 50 µg/mL | 0.66 µg/mL | > 50 µg/mL | > 50 µg/mL | > 50 µg/mL | – | – | – | – | – | – | –
